Data published in the supplement of paper PMC9233669.
This sample holds only a part of the variants without activity.

Assays:
biotinyl-Phe-oxazolone = experiment: self-aminoacylation, catalytic enhancement (BFO) (fold over background); higher = more active; k-Seq, kA / k0A0; sequences stand for … in GGGAAUGGAUCCACAUCUACGAAUUC…UUCACUGCAGACUUGACGAAGCUG
Procedure, shortened: (§1)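 Working in 50 μL HEPES/NaCl/KCl/MgCl2/CaCl2 buffer with 5% acetonitrile at pH 6.9–7.0, mutagenized RNA pools (0.43 μM; 21-nt variable region) were reacted with 2–1250 μM of each biotinyl-aminoacyl-oxazolone for 90 minutes at room temperature. Streptavidin capture followed, with quantification by triplicate qPCR and Illumina sequencing. Catalytic enhancement is reported as median kA over the uncatalyzed rate, the low-activity peak of a bimodal Gaussian fit to the data.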

biotinyl-Ile-oxazolone = experiment: self-aminoacylation, catalytic enhancement (BIO) (fold over background); higher = more active; k-Seq, kA / k0A0; sequences stand for … in GGGAAUGGAUCCACAUCUACGAAUUC…UUCACUGCAGACUUGACGAAGCUG
Procedure, shortened: as §1

biotinyl-Met-oxazolone = experiment: self-aminoacylation, catalytic enhancement (BMO) (fold over background); higher = more active; k-Seq, kA / k0A0; sequences stand for … in GGGAAUGGAUCCACAUCUACGAAUUC…UUCACUGCAGACUUGACGAAGCUG
Procedure, shortened: as §1

biotinyl-Val-oxazolone = experiment: self-aminoacylation, catalytic enhancement (BVO) (fold over background); higher = more active; k-Seq, kA / k0A0; sequences stand for … in GGGAAUGGAUCCACAUCUACGAAUUC…UUCACUGCAGACUUGACGAAGCUG
Procedure, shortened: as §1

biotinyl-Leu-oxazolone = experiment: self-aminoacylation, catalytic enhancement (BLO) (fold over background); higher = more active; k-Seq, kA / k0A0; sequences stand for … in GGGAAUGGAUCCACAUCUACGAAUUC…UUCACUGCAGACUUGACGAAGCUG
Procedure, shortened: as §1

biotinyl-Trp-oxazolone = experiment: self-aminoacylation, catalytic enhancement (BWO) (fold over background); higher = more active; k-Seq, kA / k0A0; sequences stand for … in GGGAAUGGAUCCACAUCUACGAAUUC…UUCACUGCAGACUUGACGAAGCUG
Procedure, shortened: as §1

Row | Sequence | self-aminoacylation (biotinyl-Phe-oxazolone) | self-aminoacylation (biotinyl-Ile-oxazolone) | self-aminoacylation (biotinyl-Met-oxazolone) | self-aminoacylation (biotinyl-Val-oxazolone) | self-aminoacylation (biotinyl-Leu-oxazolone) | self-aminoacylation (biotinyl-Trp-oxazolone)
1 | CUAUUUCAAACAAUAGGUCUG [Fam1A.1 aminoacylation ribozyme variant] | 1.03 | 1.25 | 1.11 | 1.01 | 1.08 | 0.803
2 | CUAUUUCAAACAAUCCGUCUG [Fam1A.1 aminoacylation ribozyme variant] | 0.946 | 0.826 | 0.818 | 0.735 | 0.715 | 0.595
3 | CUAUUUCAAACAAUCGGUCGG [Fam1A.1 aminoacylation ribozyme variant] | 2.12 | 0.851 | 0.793 | 0.868 | 0.92 | 1.9
4 | CUAUUUCAAACAAUCGGUCUA [Fam1A.1 aminoacylation ribozyme variant] | 2.12 | 0.713 | 0.634 | 0.588 | 0.571 | 1.15
5 | CUAUUUCAAACAAUCGGUCUG [Fam1A.1 aminoacylation ribozyme variant] | 8.5 | 0.819 | 0.789 | 0.781 | 0.838 | 4.39
6 | CUAUUUCAAACAAUCGGUGUG [Fam1A.1 aminoacylation ribozyme variant] | 0.988 | 0.727 | 1.01 | 0.83 | 0.992 | 0.757
7 | CUAUUUCAAACCAUCGGUCUG [Fam1A.1 aminoacylation ribozyme variant] | 0.809 | 1.03 | 1.09 | 0.988 | 0.94 | 0.708
8 | CUAUUUCAAAGAAUCGGUCUG [Fam1A.1 aminoacylation ribozyme variant] | 1.19 | 0.887 | 0.93 | 0.794 | 0.86 | 1.12
9 | CUAUUUCAAAUAAUCGGUCUG [Fam1A.1 aminoacylation ribozyme variant] | 3.5 | 0.912 | 0.849 | 0.816 | 0.814 | 2.2
10 | CUAUUUCAUACAAUCGGUCUG [Fam1A.1 aminoacylation ribozyme variant] | 0.812 | 0.911 | 0.837 | 0.801 | 0.804 | 0.625
11 | CUAUUUGAAACAAUCGGUCUG [Fam1A.1 aminoacylation ribozyme variant] | 0.697 | 0.803 | 0.815 | 0.707 | 0.779 | 0.463
12 | CUCCACUUCAAGCAAUCGGUC [Fam1B.1 aminoacylation ribozyme variant] | 50.4 | 1.37 | 1.27 | 1.45 | 2.07 | 27.6
13 | CUCCUACAAACAAUCGGUCUG [Fam1A.1 aminoacylation ribozyme variant] | 0.939 | 0.836 | 0.838 | 0.693 | 0.873 | 0.924
14 | CUCCUGCAAACAAUCGGUCUG [Fam1A.1 aminoacylation ribozyme variant] | 4 | 0.858 | 1.14 | 1.06 | 0.904 | 0.784
15 | CUCCUUCAAACAAUCGGUCGG [Fam1A.1 aminoacylation ribozyme variant] | 62.4 | 1.32 | 1.96 | 1.33 | 2.14 | 24.2
16 | CUCCUUCAAACAAUCGGUCUG [Fam1A.1 aminoacylation ribozyme variant] | 59.2 | 1.1 | 1.29 | 1.2 | 2.04 | 32.3
17 | CUCCUUCAAAUAAUCGGUCUG [Fam1A.1 aminoacylation ribozyme variant] | 13.4 | 1.13 | 1.08 | 0.835 | 1.23 | 11.2
18 | CUGCUUCAAAAAAUCGGUCUG [Fam1A.1 aminoacylation ribozyme variant] | 17.9 | 1.35 | 1.25 | 0.976 | 1.59 | 14.2
19 | CUGCUUCAAACAAGCGGUCUG [Fam1A.1 aminoacylation ribozyme variant] | 0.392 | 0.718 | 0.597 | 0.731 | 0.777 | 0.576
20 | CUGCUUCAAACAAUCGCUCUG [Fam1A.1 aminoacylation ribozyme variant] | 4.43 | 0.876 | 0.937 | 0.888 | 0.984 | 3.14
21 | CUGCUUCAAACAAUCGGUAUG [Fam1A.1 aminoacylation ribozyme variant] | 75.4 | 1.29 | 1.56 | 1.33 | 2.5 | 40.2
22 | CUGCUUCAAACAAUCGGUCUU [Fam1A.1 aminoacylation ribozyme variant] | 107 | 1.84 | 1.91 | 1.72 | 2.97 | 52
23 | CUGCUUCAAACAAUCGGUUUG [Fam1A.1 aminoacylation ribozyme variant] | 223 | 2.07 | 2.38 | 2.1 | 3.93 | 84.2
24 | CUGCUUCAAACCAUCGGUCUG [Fam1A.1 aminoacylation ribozyme variant] | 0.756 | 0.708 | 0.677 | 0.887 | 0.631 | 0.706
25 | CUGCUUCAUACAAUCGGUCUG [Fam1A.1 aminoacylation ribozyme variant] | 0.639 | 0.671 | 0.69 | 0.602 | 0.628 | 0.32
26 | CUGCUUCCAACAAUCGGUCUG [Fam1A.1 aminoacylation ribozyme variant] | 1.03 | 0.634 | 0.737 | 0.691 | 0.73 | 1.02

Row | Sequence | self-aminoacylation (biotinyl-Phe-oxazolone) | self-aminoacylation (biotinyl-Ile-oxazolone) | self-aminoacylation (biotinyl-Met-oxazolone) | self-aminoacylation (biotinyl-Val-oxazolone) | self-aminoacylation (biotinyl-Leu-oxazolone) | self-aminoacylation (biotinyl-Trp-oxazolone)
27 | CUUACCCUAGUCAUCGAGUGA [Fam2.1 aminoacylation ribozyme variant] | 5.25 | 2.99 | 4.55 | 3.24 | 5.38 | 6.07
28 | CUUACCCUGGUCAUCGAAUGA [Fam2.1 aminoacylation ribozyme variant] | 1.02 | 1.01 | 0.915 | 0.985 | 0.937 | 0.668
29 | CUUACCCUGGUCAUCGAGUGU [Fam2.1 aminoacylation ribozyme variant] | 102 | 8.72 | 26.4 | 9.84 | 24.6 | 25.6
30 | CUUACCCUGGUCAUCGAUUGA [Fam2.1 aminoacylation ribozyme variant] | 0.863 | 0.751 | 0.863 | 0.929 | 0.839 | 1.34
31 | CUUACCCUGGUCAUCGUGUGA [Fam2.1 aminoacylation ribozyme variant] | 11.1 | 1.79 | 2.8 | 2.11 | 2.87 | 2.98
32 | CUUACCCUGGUCAUUGAGUGA [Fam2.1 aminoacylation ribozyme variant] | 22.8 | 3.9 | 7.17 | 3.81 | 7.58 | 8.86
33 | CUUACCCUGGUCCUCGAGUGA [Fam2.1 aminoacylation ribozyme variant] | 28.8 | 2.44 | 5.36 | 3.36 | 4.96 | 5.89
34 | CUUACCCUUGUCAUCGAGUGA [Fam2.1 aminoacylation ribozyme variant] | 7.91 | 2.56 | 4.62 | 3.03 | 4.14 | 5.14
35 | CUUCAACUAGGUCAUCGGGUG [Fam2.2 aminoacylation ribozyme variant] | 31.8 | 3.17 | 5.42 | 3.22 | 6.16 | 4.93
36 | CUUCACCUAAGUCAUCGGGUG [Fam2.2 aminoacylation ribozyme variant] | 42.2 | 4.46 | 6.58 | 5.22 | 8.79 | 5.5
37 | CUUCACCUAGCUCAUCGGGUG [Fam2.2 aminoacylation ribozyme variant] | 9.04 | 1.76 | 2.21 | 2.37 | 2.43 | 2.82
38 | CUUCACCUAGGUCAUCCGGUG [Fam2.2 aminoacylation ribozyme variant] | 34.5 | 5.77 | 6.47 | 4.94 | 8.19 | 6.39
39 | CUUCACCUAGGUCAUCGGGUA [Fam2.2 aminoacylation ribozyme variant] | 23.4 | 4.43 | 6.65 | 5.19 | 7.28 | 5.72
40 | CUUCACCUAGGUCAUGGGGUG [Fam2.2 aminoacylation ribozyme variant] | 11.6 | 2.5 | 2.84 | 2.7 | 4.06 | 3.7
41 | CUUCAUCUAGGUCAUCGGGUG [Fam2.2 aminoacylation ribozyme variant] | 38.8 | 4.55 | 6.52 | 4.7 | 7.99 | 5.49
42 | CUUCCCCUAGGUCAUCGGGUG [Fam2.2 aminoacylation ribozyme variant] | 60.1 | 4.92 | 8.7 | 5.07 | 10.5 | 7.71
43 | CUUCCCCUGGUCAUCGAGUGA [Fam2.1 aminoacylation ribozyme variant] | 40.1 | 3.23 | 5.92 | 3.42 | 6.32 | 7.51
44 | CUUCGUCAAACAAUCGGUCUG [Fam1A.1 aminoacylation ribozyme variant] | 9.15 | 1.87 | 1.65 | 1.55 | 1.62 | 2.23
45 | CUUCUUCAAACAACCGGUCUG [Fam1A.1 aminoacylation ribozyme variant] | 0.852 | 1.11 | 0.98 | 0.949 | 0.961 | 0.846
46 | CUUCUUCAAACAAUAGGUCUG [Fam1A.1 aminoacylation ribozyme variant] | 0.983 | 0.883 | 0.817 | 0.832 | 0.825 | 0.568
47 | CUUCUUCAAACAAUCGGUCGG [Fam1A.1 aminoacylation ribozyme variant] | 10.9 | 0.873 | 1.12 | 0.789 | 1.24 | 7.44
48 | CUUCUUCAAACAAUCUGUCUG [Fam1A.1 aminoacylation ribozyme variant] | 2.27 | 0.768 | 0.587 | 0.698 | 0.748 | 1.15
49 | CUUCUUCAAACCAUCGGUCUG [Fam1A.1 aminoacylation ribozyme variant] | 0.739 | 0.856 | 0.682 | 0.775 | 0.722 | 0.509
50 | GAGUUUGCGAAUAGUCGCAAG [Fam3.1 aminoacylation ribozyme variant] | 7.65 | 1.68 | 1.8 | 1.56 | 1.76 | 2.35
51 | GAGUUUGCUAAUAGUCGCAAA [Fam3.1 aminoacylation ribozyme variant] | 3.15 | 2.47 | 1.64 | 2.15 | 1.93 | 1.59
